Experimental data published in the DeepSol protein solubility set.

Test: soluble on expression in E. coli; label from the status in PepcDB or PDB records

Row | Sequence | soluble on expression in E. coli
1 | MICARIRPLISSPLAFTISTTKHSRINLRLLPRRSFSVMSSSTPQSQIIEHIVLFKTKDDADSTKITSMINNLNALAYLDQVLHISTSPLHRISSATAFTHVLHSRYESKEDLASYAAHPDHVRVVKESVLPICDDIMAVDWIADRIPGTVAPLPGSVAKLTLLKLKEDVADEAKSEITGVIKGLSEKFPGIDQITVGENFSPARAKGFSIASIAYFKDLSEMEAVDAQKELVNSQKDKVRDYVDSTIVVEFVVPSSSQSSSL | soluble
2 | MGSDKIHHHHHHMAFIQPDLQFNPDTLDNLVIGIAADMGEHDSGAHHHSKAQLLYASAGCMRFYLADTQVVLPPTRAAWLPAGVVHHVTMRNVAAYRSLYFEPETVASLPSRVTIFHVNPLLKALIDTMSFWPWDKPRQSQHNAFSLLCEELENATAENLVLPLPQDKRLKTWLKQLQQKKQPANLKKMAIEIGASERTISRIFNAQTGMAYQAWRQQWRLLSAIEQLAAGASVAQVGFNLQFSSDSAFISFFKQYTGTTPAQYFKSPSV | not soluble
3 | MSTPGTLHIVATPIGNLGDLSPRAQHILRTVTMICAEDTRHTRQLLAHFGIERPLLALHAHNEDTLAERIITRLISGASLALVSDAGTPLISDPGFLLVRAARAAGIRVTPVPGPSALIAALSVSGLPSNRFTFEGFLPAKPTARRDRLTHLAHEPRTLIFYEASHRIAECLTDLATIFGSMRAAVVARELTKIFETVLDGTLATLQTQVANDDNQRKGEFVIIVQGAADQDAAKITEGRRVYALLKEHLPPSSAAKLAAEITGAPRKALYGG | soluble
4 | MKQAIGFIDSGVGGLTVVREVLKQLPHEQVYYLGDTARCPYGPRDKEEVAKFTWEMTNFLVDRGIKMLVIACNTATAAALYDIREKLDIPVIGVIQPGSRAALKATRNNKIGVLGTLGTVESMAYPTALKGLNRRVEVDSLACPKFVSVVESGEYKSAIAKKVVAESLLPLKSTKIDTVILGCTHYPLLKPIIENFMGDGVAVINSGEETASEVSALLDYHNLLDATDEEIEHRFFTTGSTQIFKDIAKDWLNMPDMTVEHIKLGK | not soluble
5 | MSLGKEKKVYIFDSILRDGSQAQGVSFSVADKIKIVKKLDELGIDYIEAGNPSSNPKDREFFEEIRSLKLKHSKLCAFGSTRRAGAKAEEDEGIKKLVDSGVNVFSIFGKAWDFHVTDIIKTSIEENLNMIRDSIKYLVSLNKEVVFDAEHFFDGFKSNKEYAIEVLNTARLAGAKWIVLCDTNGGTMPNEVSDIVKYLVRDLNFDNLGVHFHDDSGMAVANSVVAVHYGVNHVQGTFTGVGERCGNANLSNIIANLSLKMGYNTIKNDKLEYLTVAFRYICEACNMTPNERVAYVGNCAFSHKGGMHIDAVRKNPKSFEHIDPSRVGNSRRILVSEVSGRSTILPALKRINPKIDKDSPETKAVVKRIKDLEYLGYQFEGAEGSFELLMRKELNVFRPSFELVEYKVIAERPYLSDLSATAIVKIMVNGKLETTAADGKGPVNALDKALRKALGVFYKELANVYLTDYKVRVISGTKATSAKIRVLIESTDGVSTWTTVGVSYDIIEASWLALVDSVEYKLIQCNKEENNNEKTDDYDTKNTEGHHHHHH | soluble
6 | MTYRIKKWQKLSTITLLMAGVITLNGGEFRSVDKHQIAVADTNVQTPDYEKLRNTWLDVNYGYDKYDENNPDMKKKFDATEKEATNLLKEMKTESGRKYLWSGAETLETNSSHMTRTYRNIEKIAEAMRNPKTTLNTDENKKKVKDALEWLHKNAYGKEPDKKVKELSENFTKTTGKNTNLNWWDYEIGTPKSLTNTLILLNDQFSNEEKKKFTAPIKTFAPDSDKILSSVGKAELAKGGNLVDISKVKLLECIIEEDKDMMKKSIDSFNKVFTYVQDSATGKERNGFYKDGSYIDHQDVPYTGAYGVVLLEGISQMMPMIKETPFNDKTQNDTTLKSWIDDGFMPLIYKGEMMDLSRGRAISRENETSHSASATVMKSLLRLSDAMDDSTKAKYKKIVKSSVESDSSYKQNDYLNSYSDIDKMKSLMTDNSISKNGLTQQLKIYNDMDRVTYHNKDLDFAFGLSMTSKNVARYESINGENLKGWHTGAGMSYLYNSDVKHYHDNFWVTADMKRLSGTTTLDNEILKDTDDKKSSKTFVGGTKVDDQHASIGMDFENQDKTLTAKKSYFILNDKIVFLGTGIKSTDSSKNPVTTIENRKANGYTLYTDDKQTTNSDNQENNSVFLESTDTKKNIGYHFLNKPKITVKKESHTGKWKEINKSQKDTQKTDEYYEVTQKHSNSDNKYGYVLYPGLSKDVFKTKKDEVTVVKQEDDFHVVKDNESVWAGVNYSNSTQTFDINNTKVEVKAKGMFILKKKDDNTYECSFYNPESTNSASDIESKISMTGYSITNKNTSTSNESGVHFELTK | not soluble
7 | MAHHHHHHMVSANKSTMPLSQGCAAAAGIPLEYFETRDHINHLISLGMPRVTPHTVPPKERVATLPVPPQQDHTELMLTISSGGSPQKSYFSTTESHLLTCGTLTPKTARKRPEIDSFDMEGAFAALVKRLESRVDEEDNKDMAS | not soluble
8 | MGHHHHHHSHMGSELIGRLAPRLGLAEPDMLRKAEEYLRLSRVKCVGLSARTTETSSAVMCLDLAASWMKCPLDRAYLIKLSGLNKETYQSCLKSFECLLGLNSNIGIRDLAVQFSCIEAVNMASKILKSYESSLPQTQQVDLDLSRPLFTSAALLSACKILKLKVDKNKMVATSGVKKAIFDRLCKQLEKIGQQVDREPGDVATPPRKRKKIVVEAPAKEMEKVEEMPHKPQKDEDLTQDYEEWKRKILENAASAQKATAE | not soluble
9 | MSLSFYERYLEYKNFDFENFFDQVTDRDIINIINKDRRLSELEFLMLLSKKAVKYLEPLAQKANRITVQNFGKVIFLYTPMYLANYCVNQCIYCGFNITNNIKRRKLTLDEVEKEAYAISSTGLRHILILTGESRKESPVQYIKDCVKILQKYFRSISIEVYPLEENEYAELIEAGVDGLTIYQEVYDEEKYKALHLKGPKRNYLYRLDAPERACKASMRNVNIGALLGLHDWRTEAFYTGLHADYLQNKYPDVEIGLSLPRIRPHPCGSFVPDCKVEDRDLVQIMIAYRLFMPRAGIAISTRERESLRNNLIGLGVTKMSAASSTEVGGHTLGDKSDGQFDVNDRRGVEEMRQMIYSKGYQPVFKDWQAEGHHHHHH | soluble
10 | MGSDKIHHHHHHMTLEIAQKRTIKLLKSSTPKEKLNKFVKGYVPTHYKRLSISMEKAIELAIIGATESLAYYGDRLYFTQALLMGAVVSGEYDNIIVVTPSQYGKSWLSSRIAVWLADHNRRCYVAGGKKDTTDIIMQHVTDTLQTVDESIARKLLEPVDKLERLQTGLSKRKISFSGGGSIEGISLGEHFKGNKSGNQAIGRGGDYIIDESAFVSNETYAELGRRNFANVDGKNYLSFEISNPHNKGRFYDKLTQENIPKGMLVVWADVRTAFEEDRVKSIEQVISSEFFQNKSTCQRYFLCELPDENEDGMFGTPQTEEEHTEKNWEYFLGVDSAYKGKDKIKATLSALDAQGQVHVIDTIEIEKGDWQDGVTSKKIITQLLMIIEHFEVKGVCVDVGYGVYIVEGLAHINGDFELHGINFGAGTTKERVEKNHYSAKYGANKRAEMHIDLQENIDNRNIFFTEKVYEEVIDELVLVSSKIKSNGKTAIVPKEEIKAKLGHSPDTLDSVLLSLHAIILYKLNERFYIYS | not soluble
11 | MNFFSLHPNVYATGRPKGLIGMLENVWVSNHTPGEGTLYLISGFSNYNGGVRFYETFTEHINQGGRVIAILGGSTSQRLSSRQVVEELLNRGVEVHIINRKRILHAKLYGTSNNLGESLVVSSGNFTGPGMSQNIEASLLLDNNTTQSMGFSWNDMISEMLNQNWHIHNMTNATDASPGWNLLYDERTTNLTLDETERVTLIVTLGHADTARIQAAPGTTAGQGTQYFWLSKDSYDFFPPLTIRNRRGTKATYSSLINMNYIDINYTDTQCRVTFEAENNFDFRLGTGKLRYTGVAKSNDIAAITRVGDSDYELRIIKQGTPEHSQLDPYAVSFIGNRGKRFGYISNEEFGRIIGVTF | soluble
12 | GPGSMYSYNNIIEKNEPCKKDVIENLQLSLSPTGAVRQFRVDERVDVVVVEGFLSNDECDQLIAACEKVGYTFWRQKDPNAEGEEAGCCGEAEARAFRVVDTIEANFPTLSQVLSSRIEKVVKLDPKTFSPSMEGAEELFARDLEGTWVPQQLAQNLLFARYGAGGHFSPHIDGSTIVDINTRSLYTLLIYLNDCEAGGETVLFDGEQAEVLKRDAESGKYIGRRENRIGAVKPTKGTAAFFYYDVLHEGSPVGEGHSKYIIRGDFLYRRNPPILTAENDMKAFELYEKARVAESNGDVFAACEMFQRVRKLSKGVAELYQL | soluble
13 | DAIAVWGHRPSAAKPVAIAKAAGKPVIRLEDGFVRSLDLGVNGEPPLSLVVDDCGIYYDASKPSALEKLVQDKAGNAALADQAREAMHTIVTGDLSKYNLAPAFVADESERADIVLVVDQTFNDMSVTYGNAGPHEFAAMLEAAMEENPQAEIWVKVHPDVLEGKKTGYFADLRATQRVRLIAENVSPQSLLRHVSRVYVVTSQYGFEALLAGKPVTCFGQPWYAGWGLTDDRHPQSALLSARRGSATLEELFAAAYLRYCRYIDPLTG | not soluble
14 | MESKRLDNAALAAGISPNYINAHGKPQSISAETKRRLLDAMHQRTATKVAVTPVPNVMVYTSGKKMPMVVEGSGEYSWQLTTEEGTQYKGHVTGGKAFNLPTKLPEGYHTLTLTQDDQRAHCRVIVAPKRCYEPQALLNKQKLWGACVQLYTLRSEKNWGIGDFGDLKAMLVDVAKRGGSFIGLNPIHALYPANPESASPYSPSSRRWLNVIYIDVNAVEDFHLSEEAQAWWQLPTTQQTLQQARDADWVDYSTVTALKMTALRMAWKGFAQRDDEQMAAFRQFVAEQGDSLFWQAAFDALHAQQVKEDEMRWGWPAWPEMYKNVDSPEVRQFCEEHRDDVDFYLWLQWLAYSQFAACWEISQGYEMPIGLYRDLAVGVAEGGAETWCDRELYCLKASVGAPPDILGPLGQNWGLPPMDPHIITARAYEPFIELLRANMQNCGALRIDHVMSMLRLWWIPYGETADQGAYVHYPVDDLLSILALESKRHRCMVIGEDLGTVPVEIVGKLRSSGVYSYKVLYFENDHEKTFRAPKAYPEQSMAVAATHDLPTLRGYWESGDLTLGKTLGLYPDEVVLRGLYQDRELAKQGLLDALHKYGCLPKRAGHKASLMSMTPTLNRGLQRYIADSNSALLGLQPEDWLDMAEPVNIPGTSYQYKNWRRKLSATLESMFADDGVNKLLKDLDRRRRAAAKKK | not soluble
15 | MGSSHHHHHHHSSGLVPRGSHMMRKRARIIYNPTSGKEQFKRELPDALIKLEKAGYETSAYATEKIGDATLEAERAMHENYDVLIAAGGDGTLNEVVNGIAEKPNRPKLGVIPMGTVNDFGRALHIPNDIMGALDVIIEGHSTKVDIGKMNNRYFINLAAGGQLTQVSYETPSKLKSIVGPFAYYIKGFEMLPQMKAVDLRIEYDGNVFQGEALLFFLGLTNSMAGFEKLVPDAKLDDGYFTLIIVEKSNLAELGHIMTLASRGEHTKHPKVIYEKAKAINISSFTDLQLNVDGEYGGKLPANFLNLERHIDVFAPNDIVNEELINNDHVDDNLIEE | soluble
16 | MSRLPLLLLSVLLATPAAQASDCPDLALVLALDSSLSIDRAEFALQAEGYAEAFRSPAVQAALAAAGTVDVAAVVWSDGAAPPARLGWQRIAAPEDARRLAVRLAALERVAPGRTGVGGGLAAALEMLAGHGCAGRRLVNLSGDGRETLAPRMGLRGQLMRARAEAEALGATVNALAVTDEEADLPDWFRSHVIVGPGAFVMETREFRGFAEAVARKLVREIAPPALAAGRPGLPPHRLTPGGRDHPARRSLEHHHHHH | not soluble
17 | MNHNDVLRSLRYMLKVNDAKMAEIIGLSGLEVHPLVLATYLKKEEEEGFVRCPERVMAHFLDGLVIYRRGKDESRPQQPIELPVTNNLILKKLRVAFELKEDDLHAILKSVNFPVSKPELSALFRKAGHDNYRPCGDQLMRNFLKGLTLRVRG | not soluble
